# Data taken from article PMC6113619.
# Biological target: T1, QscR (Pseudomonas aeruginosa PAO1?) (UniProt G3XD77)
# T1 sequence: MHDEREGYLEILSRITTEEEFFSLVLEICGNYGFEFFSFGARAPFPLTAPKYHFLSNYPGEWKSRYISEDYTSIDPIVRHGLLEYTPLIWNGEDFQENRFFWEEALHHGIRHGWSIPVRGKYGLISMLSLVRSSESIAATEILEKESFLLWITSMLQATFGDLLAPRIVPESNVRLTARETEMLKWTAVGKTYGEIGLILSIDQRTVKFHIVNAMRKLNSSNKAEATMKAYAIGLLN
# Experiment: EMSA
# Details: EMSA: 40 ng probe, 0-100 ng QscR in 10 ul; 20 mM Tris pH 7.5, 50 mM KCl, 10% glycerol, 1 mM DTT, 20 uM 3OC12-HSL; 20 min room temperature; 5% native gel at …
row,Sequence,binding
1,CTCTCGTGTGAAGCCATTGCTCTGATCTTTTCGGACGTTTCTTCGAGCCTAGCAAGGGTCCGGGTTCACCGAAATCTATCTCATTTGCTAGTTATAAAATTATGAAATTTGCATAAATTCTTCAGCTTCCTATTTGGAGGAAGTGAAGATGATCGTACAAATTGGTCGGCGCGAAGAGTTCGATAAAAAACTGCTGGGCGAGATGCACAAGTTGCGTGCTCAAGTGTTC (double strand) [lasI promoter PCR fragment],no binding
2,GCTTCACCGAGCAGAACTCCGGGCTGATCTACCGCGGGCAATCAGGCGGAATGAACGAAGCGTTCTCCGACATGGCCGGCGAGGCTGCCGAGTTCTATATGCGCGGCAAGAACGACTTCCTGATCGGCTACGACATCAAGAAGGGCAGCGGTGCGCTGCGCTACATGGACCAGCCCAGCC (double strand) [lasB promoter PCR fragment],no binding
